This note sets out measurements from the domain aggregation screens of Martell et al. (2025).

Some results are limits rather than exact numbers.

A short description of the series: soluble fraction after stress (log2 fold change); higher = more stays soluble; pooled small domains, quantitative proteomics. The note with it: stress: pH 4. In a few lines:
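Pooled custom libraries of small protein domains were stressed at pH 4 and then measured by high-throughput quantitative proteomics. The fold change in the amount of each domain that stays soluble after the acid stress serves as a measure of aggregation propensity. Fold changes are given on a log2 scale, and higher values mean more of the domain stayed soluble.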

As for “HMGVAAEDPDEAEKGAHSLKSSAANVGAEVVRGLAGEIESAASSGDVEAVRTILPGLEDAYSQAITDLET”, the “soluble fraction (log2)” value was 0.133.

Regarding “HMGVDMGPAKYVGQKALTATEMRPAGKIQIGQTVFDAVSVGPFIGARKAVKVIKYENAQLYVEPE”, the “soluble fraction (log2)” value was found to be 0.116.

As for “HMGVEVEVPNVKGKLVADAEYELGLAQLTPVRTDSAYNRNLPPGTVLEQLPASGSHVKEGREIYLTINST”, the “soluble fraction (log2)” value came out at 0.155.

Regarding “HMGVGERIKARRKEIGLSAEQVAKELGVSPATVYRYESNDIMNMRIDKLEPIAKALHTTPAYLMGWE”, the “soluble fraction (log2)” value was 0.155.

Take “HMGVGVKSTEVDYQRTSSGSDIPTDDAAWTKTIPAVKVNTFLWTRTKINYTDGTSAIFYSVGY”: the “soluble fraction (log2)” value turned out to be 0.419.

On to “HMGVGVPVTLLLEKLGEDTLSAQQIMERLGLKSRASFRKVYLVPALEQKLIEMEFPDKPNSSKQRYRR”, for which the “soluble fraction (log2)” value is -0.00401.

Turning to “HMGVISRVITFWQNGFTVDDGPLRAFDDPANMAFMESIGRGEAPAELAPKTRTQRVNINLVQRHEPYSAPK”, the “soluble fraction (log2)” value is -0.934.

In the case of “HMGVITVRPPIVVRDFAIALNLKPFQVIGNLMELNKVVSVSSVIEEADARKVAERHGYTLEIRH”, the “soluble fraction (log2)” value is -0.133.

As for “HMGVMNEYEELRDRYLTGQIWKIGDLVEAKGIEGKIIQRGTNYITFNDSQGKVHKAWLHEIKV”, the “soluble fraction (log2)” value is no less than 0.43.

As for “HMGVNNDIIKHRKLEFMIEMLPDTFTRKEANEIGEGLGISLATLTRYLSSDAFERTGHGRYRKKD”, the “soluble fraction (log2)” value worked out at 0.139.

“HMGVPTEQEIGKRILAWRKLRGMTLQQLADKAGVGLTTIHNLETGLWYAKMPTYLYIAEALGVSLDALIYG”: the “soluble fraction (log2)” value was 0.0266.

As for “HMGVPVTAPMPGKVLKVTVSVGAAVKNGDLVLVLEAMKMENEIFATANGVVKEIRSREGDTVNSGDVMMVI”, the “soluble fraction (log2)” value was -1.35.

Take “HMGVRPAALGFQKVRIEPQVGTFREASGDVITPRGLIHAEWKRDEENALHLHYTLPDGVAYA”: the “soluble fraction (log2)” value was -0.109.

On to “HMGVSDDMARGVVRARQFLSDFAAVPLDRMTPAEAVARARQLKSELETDAKHSPWLLDVLSNA”, for which the “soluble fraction (log2)” value is -0.37.

For “HMGVSEIGSPAWMESKLVTLASYEGSLDGLRTLWGGVAQHRARIPVESWDRLFAAKEEGKARLVKLGRT”, the “soluble fraction (log2)” value was determined as 0.0299.

Consider “HMGVSLREVPVAEHGDWIGRPIKELGIPAEVLIVLVRRADGTTVVPKGGTVLQQGDMLVVNEWEE”, for which the “soluble fraction (log2)” value is -1.25.

On to “HMGVTDSSYNVLRRQILEMLSVQQRTPADLARLIEADKEEIAAVIRFLLDKGEIQMEDGMLQTK”, for which the “soluble fraction (log2)” value is -0.151.

Turning to “HMGVVEEVAADFEGRAVVGKVDVDEQTELARRFGIMSIPTLVVMKGGKVVEQAVGARGKADIAAMLERH”, the “soluble fraction (log2)” value is -0.673.

On to “HMGYINLNVKVSPEWRDFWRSAYASVVAGYHQNKEHWNTIILDGSIPDKDIKRMIAESYDLVSD”, for which the “soluble fraction (log2)” value was -0.662.

On to “HMGYLNDRQRLIKDFITENQPLKVSDLVKQFPNIGLSTLKKDLQYLRGEQVLTMIGKGKGSVYVLNKK”, for which the “soluble fraction (log2)” value was no less than 0.43.

For the sequence “HMGYNDQEVKSNLITLLSTSKTGLSGVEISAQLGINRVTMTKFLNVFAAEGIIKQKNIGNLNLWLVEEGTE”, the “soluble fraction (log2)” value is -0.05.

Consider “HMGYTTSFVVQLKNAVSISFDEIDQNLRKLPGVEDVVIVEEAAMAYLKVDRQHFREEQLAHFEFVRQ”, for which the “soluble fraction (log2)” value was -1.6.

On to “HMGYVQLTAREKEVLQGLVDGASYKMIAAKLDIRFGTVHTHVKNIYEKLHVNSASEAVVKAIRQRL”, for which the “soluble fraction (log2)” value was -0.743.

As for “HMHADIAATVVATMRQLGVLGLPRNYEIFYEALSGTNRELSLAVVSLSNRPTQDDLDRIGRRFFA”, the “soluble fraction (log2)” value was -0.426.

Consider “HMHAEEIAREAKEALERGEEFHFAGITVRSEEALEFLEEWLRKFF”, for which the “soluble fraction (log2)” value was -1.23.

With “HMHALSVKFSDEAAKTLPYDILSALRDVLALDPRPGYSRDENKIYRFEYADYNISFSVKDKTLTVLSAEK”, the “soluble fraction (log2)” value was -0.148.

“HMHAPRIEVVQIDPEKIGALIGPGGKNIRRITEVTGANLDIDEDNSGKIRVYASDSEAMNRALQEIDLVT”: the “soluble fraction (log2)” value is -0.18.

On to “HMHDHKTRLQELAAQRFGSAPSYLLTADGPAHDRRFHASVEVGGRSFGPGTGKSKKRAEQVAAHIAWDALS”, for which the “soluble fraction (log2)” value was 0.415.

“HMHDIPDITDLRPLRHTLGLTLAHAAQQLNTTTATISRLERGQHRNDHLATTYRTWLHTHPT”: the “soluble fraction (log2)” value was 0.08.

On to “HMHDLSQQIVRYLIQQGGSSSLTDKSDPQEIYRTFKVSKKKYKQALGNLYKSKTIVITSGKIELVD”, for which the “soluble fraction (log2)” value worked out at 0.306.

“HMHDYNTIVGVIEMRDKNIPLTSIRQRYGIGYSGIDLILTRYKDSGLTLKEFLALDPSQAEELIYPPK”: the “soluble fraction (log2)” value was -0.134.

Take “HMHEHWDGSGFPKHLRGANIPLGARVIAVADTYDSITSSRAYRAGSTHEAAEREMRRVSGTQLDPE”: the “soluble fraction (log2)” value stood at 0.0226.

With “HMHEIVDTVLQVKQSVEADPLIAPALKNKEIVFQLNAKGVFQFKNAVIQVASALGISKNTVYMHLRNNK”, the “soluble fraction (log2)” value is -0.14.

On to “HMHETMGQIIKRLRKERGLTQESLAERLGVTFQAVSKWETDAGMPDVSQIVPLANAFGVRTDVLFGLEGRD”, for which the “soluble fraction (log2)” value worked out at 0.187.

For the sequence “HMHEYSRIYQQQWWDNATGADAYHVIHSARSRAAQDPEAARALEYLEEQFRIRYGVRTEDFLGYLHD”, the “soluble fraction (log2)” value was -1.31.

“HMHFENEETFVLPLVREGFSEQQQLEMVDRLLFDANTDNPRWIIDWMASELPSTQRELLLDLEKRLAEVRS”: the “soluble fraction (log2)” value is -0.358.

Regarding “HMHFEWNELRKAINDFLAEQNMNEDKQLGPYFIQRDIVVPETGTEIDSKKFSEVFKHKVIMYLFDDAAKQ”, the “soluble fraction (log2)” value is -0.441.

For the sequence “HMHGESISVPDLRGQKMERMPAFLADKHLQFKVIDSLFDLEKNPGTVLEQDPAPNSKVKEGRTIYLTVNAQ”, the “soluble fraction (log2)” value was -0.118.

Take “HMHGQGTYTSPDGTKYVGDWQDEKMHGQGTYTYPDGMKFVGEFKDNKPWNGTGYDKYGNVKATFSNGVGKS”: the “soluble fraction (log2)” value amounted to 0.22.

“HMHGSSSTVPPVKGLSFEQARLTLAENDLTVEISDSIYDRNARPGTVVESWPRAGSVVKQGRQVYVTVTAF”: the “soluble fraction (log2)” value was -0.685.

As for “HMHHDDHNQQEEIKEKLLAMVADGERHHVTEVRQLDEDWDMVTKVMKELMDEEQLLMDGSYLILSA”, the “soluble fraction (log2)” value was -0.551.

Turning to “HMHHSGLRQSQFDEISRQIRSLLEMESLSLQELKTRMEDVPEEQLTKVVSYLLSEEIIRQENGRLQ”, the “soluble fraction (log2)” value was -1.35.

For the sequence “HMHKAVVGPPNARKLAVTYGFKRWPALVFFRDGKYLGAVDGLRLWADLVREADEIMHSEPHYP”, the “soluble fraction (log2)” value was 0.22.

For the sequence “HMHKFMEQNQDRRLSRMKELIGILSEAAKTYYQESREIMSNFQYDRMYDELLELEKETGVVMAGSPTQKV”, the “soluble fraction (log2)” value is -0.98.

For the sequence “HMHKKQEVQDSIDAAEEFMRASGVPAELITSKRAYAVKAIYADAVDKGTPDEIVKKDGMIVALISQMRS”, the “soluble fraction (log2)” value was -0.159.

As for “HMHKLTIEEALNYKTPANAGGPYSGKPFRDIYDQRGKAAVISFAKYYLSKATPEDPMVEVYRTLLDGAMEL”, the “soluble fraction (log2)” value is 0.102.

As to “HMHKREKSFFETIYDDIPGIGKKRRVQLLSAYPTLDSLKSVTLEELKQIVPEESAKLILEKRDSR”, the “soluble fraction (log2)” value came out at 0.407.

In the case of “HMHPARITATVRVGEGDLVDIEREAELGGPIHSKGVMILSSFLGARYARTVPLSLSASLVFEQSY”, the “soluble fraction (log2)” value is 0.0113.

In the case of “HMHPDALTEREREVLSLLADGLSNREIAARLVLALGTVKWYISVIYSKLGVTRRTQAIARARELHLV”, the “soluble fraction (log2)” value is -0.41.

Turning to “HMHPEETVNLILDAAFRLFLEKGYEHTSIQDIIGQLGGLSKGAIYHHFNSKEDILIAVTDRMTA”, the “soluble fraction (log2)” value was -1.67.
